From patent US20220251217A1 (University of California, published 2022)

T1: CD72-Fc (CD72 extracellular domain, aa 117-359, fused to a biotinylated human Fc domain) (human, UniProt P21854 117-359, biotinylated (on the Fc domain; site not stated))
T1 chain: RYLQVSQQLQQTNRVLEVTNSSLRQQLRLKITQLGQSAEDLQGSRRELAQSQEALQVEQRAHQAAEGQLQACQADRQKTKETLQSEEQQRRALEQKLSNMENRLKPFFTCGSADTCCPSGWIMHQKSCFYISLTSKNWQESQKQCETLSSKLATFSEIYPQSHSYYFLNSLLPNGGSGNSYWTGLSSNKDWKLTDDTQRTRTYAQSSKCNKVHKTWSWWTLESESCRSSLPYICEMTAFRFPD

T2: CD72-Fc (CD72 extracellular domain, aa 117-359, fused to a biotinylated human Fc domain) (human, UniProt P21854 117-359, biotinylated (on the Fc domain; site not stated))
T2 construct: range 117-359; Expressed in mammalian cells; also called CD72-ECD-Fc protein; recombinant CD72-Fc fusion protein; not shown: human Fc domain
T2 sequence (looked up): T1 chain

B1: Nb.C2 (VHH)
VHH: QVQLQESGGGLVQAGGSLRLSCAASGTIFDWYSMGWYRQAPGKERELVAGIDTGANTYYADSVKGRFTISRDNAKNTVYLQMNSLKPEDTAVYYCAAHDDGDPWHVYWGQGTQVTVSS
notes: also called yeast clone Nb.C2
B2: Nb.B5 (VHH)
VHH: QVQLQESGGGLVQAGGSLRLSCAASGTIFPVDYMGWYRQAPGKERELVAGINYGSNTYYADSVKGRFTISRDNAKNTVYLQMNSLKPEDTAVYYCAAWQPEGYAVDFYHPYWGQGTQVTVSS

Key:
[1] = target: T1, CD72-Fc (CD72 extracellular domain, aa …); assay: on-yeast binding (yeast display flow cytometry)
[2] = target: T2, CD72-Fc (CD72 extracellular domain, aa …); assay: on-yeast affinity measurement, flow cytometry, titration of CD72-Fc
Description: FIG. 4a-e: Isolation of high-affinity CD72 nanobodies with yeast display (a) Schematic of workflow for in vitro anti-CD72 nanobody selection using yeast display. (b) Structure models of the recombinant Fc-fusion proteins used to perform yeast display selections. The Fc protein on the left was used to negatively select potential off-target nanobodies while the CD72-Fc protein (CD72 extracellular domain fused to a human Fc domain) was used to perform positive selection steps to isolate CD72-specific nanobodies (c) Schematic displaying the nanobody yeast display selection strategy for each MACS and FACS selection round to enrich for CD72-specific nanobody binders. Two rounds of MACS followed by four rounds of FACS with decreasing concentration of CD72 antigen produced high affinity anti-CD72 nanobodies. (d) On-yeast binding of recombinant CD72-Fc fusion protein for CD72-selected nanobodies Nb.B5 (nanobody sequence SEQ ID NO:2) and Nb.C2 (nanobody sequence SEQ ID NO:1) expressed on yeast to determine estimated binding affinities. Kd determined by curve fitting using non-linear least squares regression. (e) Flow cytometry plots of yeast clone Nb.C2 binding to 10 nM CD72-ECD-Fc protein (left) or 10 nM Fc protein (right). […]

Binder	Kd [1] [nM]	binding result [2]
B1	1.5	binds
B2	1	binds
